# T1: Spt7 (S. cerevisiae, UniProt P35177 1-1332)
# T1 construct: Spt7, S. cerevisiae, second largest SAGA subunit (SPT module); source: endogenous, in the native SAGA complex purified from fermented S. cerevisiae cells
# T1 sequence (looked up): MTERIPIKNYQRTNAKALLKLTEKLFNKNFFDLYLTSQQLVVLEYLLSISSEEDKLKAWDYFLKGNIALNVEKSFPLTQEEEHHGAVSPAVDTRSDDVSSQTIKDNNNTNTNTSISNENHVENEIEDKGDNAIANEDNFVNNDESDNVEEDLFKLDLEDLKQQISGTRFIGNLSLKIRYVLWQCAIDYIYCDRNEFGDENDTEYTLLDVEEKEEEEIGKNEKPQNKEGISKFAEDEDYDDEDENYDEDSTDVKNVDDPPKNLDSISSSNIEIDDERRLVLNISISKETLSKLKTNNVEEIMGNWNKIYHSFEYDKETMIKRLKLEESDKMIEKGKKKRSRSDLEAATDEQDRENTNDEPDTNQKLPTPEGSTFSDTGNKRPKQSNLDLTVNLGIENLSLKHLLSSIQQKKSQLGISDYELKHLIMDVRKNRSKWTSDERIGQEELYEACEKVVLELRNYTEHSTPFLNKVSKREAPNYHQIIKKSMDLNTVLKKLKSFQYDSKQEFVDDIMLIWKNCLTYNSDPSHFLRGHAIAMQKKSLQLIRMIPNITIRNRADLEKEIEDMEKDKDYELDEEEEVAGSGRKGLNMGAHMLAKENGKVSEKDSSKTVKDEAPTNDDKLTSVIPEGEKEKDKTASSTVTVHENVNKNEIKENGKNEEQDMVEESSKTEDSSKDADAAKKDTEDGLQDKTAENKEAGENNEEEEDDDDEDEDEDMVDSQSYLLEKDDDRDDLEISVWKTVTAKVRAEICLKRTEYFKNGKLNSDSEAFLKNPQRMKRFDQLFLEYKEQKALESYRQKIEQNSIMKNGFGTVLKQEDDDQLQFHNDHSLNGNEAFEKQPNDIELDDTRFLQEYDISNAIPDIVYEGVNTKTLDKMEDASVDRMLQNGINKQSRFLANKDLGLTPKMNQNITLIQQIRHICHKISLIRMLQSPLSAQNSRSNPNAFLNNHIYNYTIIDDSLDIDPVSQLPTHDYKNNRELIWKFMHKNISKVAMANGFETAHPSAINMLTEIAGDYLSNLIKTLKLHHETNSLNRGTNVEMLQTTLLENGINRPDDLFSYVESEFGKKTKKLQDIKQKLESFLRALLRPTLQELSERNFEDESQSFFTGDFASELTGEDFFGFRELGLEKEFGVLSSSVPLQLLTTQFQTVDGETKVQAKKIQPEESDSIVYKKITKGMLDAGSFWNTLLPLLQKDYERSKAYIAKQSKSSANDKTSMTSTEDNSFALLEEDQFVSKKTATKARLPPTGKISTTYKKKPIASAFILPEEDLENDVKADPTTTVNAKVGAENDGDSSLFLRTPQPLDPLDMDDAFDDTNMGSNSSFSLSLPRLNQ
# Biological target: T2, Tra1 (S. cerevisiae, UniProt P38811 1-3744)
# T2 construct: Tra1, S. cerevisiae, largest SAGA subunit (SPT module), 3744 residues as printed; Endogenous subunit; Purification methods and any tag are in the Supplementary Materials; also called Tra1_(SAGA); lobe A; source: endogenous, in the native SAGA complex purified from fermented S. cerevisiae cells
# T2 sequence (P38811 whole entry): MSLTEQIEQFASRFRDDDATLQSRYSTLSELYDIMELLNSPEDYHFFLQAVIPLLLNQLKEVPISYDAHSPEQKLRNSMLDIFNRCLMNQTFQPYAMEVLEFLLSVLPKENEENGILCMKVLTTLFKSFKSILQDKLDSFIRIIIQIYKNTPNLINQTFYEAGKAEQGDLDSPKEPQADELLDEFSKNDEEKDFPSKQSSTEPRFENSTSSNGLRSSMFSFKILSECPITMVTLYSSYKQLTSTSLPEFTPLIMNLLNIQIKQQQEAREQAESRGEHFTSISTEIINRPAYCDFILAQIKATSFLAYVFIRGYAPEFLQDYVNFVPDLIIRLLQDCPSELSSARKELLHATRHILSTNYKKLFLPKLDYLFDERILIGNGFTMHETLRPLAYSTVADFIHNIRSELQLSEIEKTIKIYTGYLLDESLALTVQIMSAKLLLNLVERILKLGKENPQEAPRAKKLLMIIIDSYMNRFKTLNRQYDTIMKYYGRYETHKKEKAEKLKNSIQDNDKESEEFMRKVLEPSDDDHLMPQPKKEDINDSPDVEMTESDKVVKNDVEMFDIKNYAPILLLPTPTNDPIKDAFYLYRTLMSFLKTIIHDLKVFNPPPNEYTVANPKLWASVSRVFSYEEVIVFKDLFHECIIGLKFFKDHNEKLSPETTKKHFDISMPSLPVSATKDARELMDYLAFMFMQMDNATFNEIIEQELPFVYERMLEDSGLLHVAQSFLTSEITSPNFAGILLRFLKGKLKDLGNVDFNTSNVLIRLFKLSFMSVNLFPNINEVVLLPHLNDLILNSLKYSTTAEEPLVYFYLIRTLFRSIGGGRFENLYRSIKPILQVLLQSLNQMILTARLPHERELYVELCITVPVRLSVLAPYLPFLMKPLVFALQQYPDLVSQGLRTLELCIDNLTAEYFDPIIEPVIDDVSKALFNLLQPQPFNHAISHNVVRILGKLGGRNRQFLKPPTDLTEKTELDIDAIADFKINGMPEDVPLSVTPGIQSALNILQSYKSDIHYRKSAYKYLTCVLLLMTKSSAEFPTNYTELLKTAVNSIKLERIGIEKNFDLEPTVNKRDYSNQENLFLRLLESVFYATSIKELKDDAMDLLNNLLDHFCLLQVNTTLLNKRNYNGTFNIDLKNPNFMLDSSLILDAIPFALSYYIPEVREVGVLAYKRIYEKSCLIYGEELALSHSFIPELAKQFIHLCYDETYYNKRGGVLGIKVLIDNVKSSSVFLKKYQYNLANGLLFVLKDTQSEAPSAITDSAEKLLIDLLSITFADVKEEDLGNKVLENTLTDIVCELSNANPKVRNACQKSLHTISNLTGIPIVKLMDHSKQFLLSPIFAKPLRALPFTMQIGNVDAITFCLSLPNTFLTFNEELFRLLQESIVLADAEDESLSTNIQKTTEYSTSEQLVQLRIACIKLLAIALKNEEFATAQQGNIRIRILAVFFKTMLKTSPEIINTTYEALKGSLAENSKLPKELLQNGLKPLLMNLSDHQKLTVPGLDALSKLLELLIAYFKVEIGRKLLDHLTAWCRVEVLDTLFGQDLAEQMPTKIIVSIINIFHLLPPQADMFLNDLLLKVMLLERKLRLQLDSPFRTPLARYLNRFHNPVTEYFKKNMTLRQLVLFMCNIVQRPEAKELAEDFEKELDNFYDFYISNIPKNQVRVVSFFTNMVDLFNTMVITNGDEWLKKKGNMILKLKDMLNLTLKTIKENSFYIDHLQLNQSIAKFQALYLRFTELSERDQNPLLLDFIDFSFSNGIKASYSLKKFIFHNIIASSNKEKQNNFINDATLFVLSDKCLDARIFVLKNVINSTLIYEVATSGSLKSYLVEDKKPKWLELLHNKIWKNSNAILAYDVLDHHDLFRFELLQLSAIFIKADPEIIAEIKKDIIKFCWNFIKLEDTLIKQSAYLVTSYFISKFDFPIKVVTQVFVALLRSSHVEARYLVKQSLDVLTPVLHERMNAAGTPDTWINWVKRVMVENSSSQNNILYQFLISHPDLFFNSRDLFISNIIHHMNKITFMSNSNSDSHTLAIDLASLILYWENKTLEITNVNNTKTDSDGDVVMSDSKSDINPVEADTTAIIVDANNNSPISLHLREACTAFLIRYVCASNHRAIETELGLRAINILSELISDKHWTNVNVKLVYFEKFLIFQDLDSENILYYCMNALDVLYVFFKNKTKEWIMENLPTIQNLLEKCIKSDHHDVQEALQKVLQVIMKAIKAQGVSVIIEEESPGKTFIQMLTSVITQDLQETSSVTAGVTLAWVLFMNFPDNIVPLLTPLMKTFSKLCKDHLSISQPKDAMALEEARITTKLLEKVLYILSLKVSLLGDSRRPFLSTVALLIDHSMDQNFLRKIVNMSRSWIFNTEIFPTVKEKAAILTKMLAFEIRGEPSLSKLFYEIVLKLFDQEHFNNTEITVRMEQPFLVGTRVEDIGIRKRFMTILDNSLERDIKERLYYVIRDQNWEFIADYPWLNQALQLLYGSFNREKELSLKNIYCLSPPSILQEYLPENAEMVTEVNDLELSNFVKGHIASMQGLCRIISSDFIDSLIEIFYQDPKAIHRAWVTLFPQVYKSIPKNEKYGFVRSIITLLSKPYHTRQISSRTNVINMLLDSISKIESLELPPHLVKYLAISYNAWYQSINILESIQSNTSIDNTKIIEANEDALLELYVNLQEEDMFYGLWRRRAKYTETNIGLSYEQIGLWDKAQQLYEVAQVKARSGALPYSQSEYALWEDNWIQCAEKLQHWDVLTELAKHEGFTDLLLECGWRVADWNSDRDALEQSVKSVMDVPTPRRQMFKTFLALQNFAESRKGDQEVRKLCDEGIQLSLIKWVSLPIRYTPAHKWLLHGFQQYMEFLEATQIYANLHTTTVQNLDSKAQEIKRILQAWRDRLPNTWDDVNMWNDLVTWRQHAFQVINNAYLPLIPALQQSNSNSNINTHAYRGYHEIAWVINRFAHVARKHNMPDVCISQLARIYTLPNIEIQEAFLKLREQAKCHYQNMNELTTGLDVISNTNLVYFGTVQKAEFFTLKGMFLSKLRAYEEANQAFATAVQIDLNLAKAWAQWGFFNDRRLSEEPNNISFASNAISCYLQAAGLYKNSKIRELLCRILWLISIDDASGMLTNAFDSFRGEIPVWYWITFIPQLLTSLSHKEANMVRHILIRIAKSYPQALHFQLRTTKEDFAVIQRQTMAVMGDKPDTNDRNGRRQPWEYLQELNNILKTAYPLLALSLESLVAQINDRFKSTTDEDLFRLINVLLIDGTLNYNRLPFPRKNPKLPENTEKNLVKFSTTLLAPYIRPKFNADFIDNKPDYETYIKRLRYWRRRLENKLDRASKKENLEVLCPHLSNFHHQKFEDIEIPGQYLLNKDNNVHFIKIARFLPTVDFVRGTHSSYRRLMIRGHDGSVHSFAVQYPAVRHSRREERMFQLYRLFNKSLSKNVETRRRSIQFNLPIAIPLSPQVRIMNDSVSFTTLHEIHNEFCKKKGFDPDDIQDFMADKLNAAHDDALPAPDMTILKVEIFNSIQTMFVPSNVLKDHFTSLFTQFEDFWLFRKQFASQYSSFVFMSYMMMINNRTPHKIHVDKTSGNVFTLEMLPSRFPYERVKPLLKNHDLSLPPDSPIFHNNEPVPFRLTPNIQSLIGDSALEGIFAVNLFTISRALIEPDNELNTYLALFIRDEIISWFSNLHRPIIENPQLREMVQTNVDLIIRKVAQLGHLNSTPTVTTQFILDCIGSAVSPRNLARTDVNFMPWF
# Test: cross-linking; chemical cross-linking of proteins coupled with mass spectrometry (CXMS) on the purified native SAGA complex; 139 unique inter- and 184 unique intra-subunit cross-linking pairs
# Conditions: both partners purified
row,Binder,binding result
1,"Ada1 (natural protein, S. cerevisiae, UniProt Q12060 1-488, looked up, Ada1, S. cerevisiae, SAGA subunit (SPT module); source: endogenous, in the native SAGA complex purified from fermented S. cerevisiae cells) MSAIQSPAPKPLQPTYPAASPASTNAYMKPGLIGSPAVSNHTEPNNGNNETAEPQGPNQRIDLGAMIEELTSLLGKESWTKYAQIISLFILGKLSRKELSNELELVFSPSAASLEKSNTNHHHSLVRLHNQLLLGIFANSLRENPLGRNGNESSWGFGNGSNNPNNKLKRINKHNSQIEVYKKIVMSLPLNDRNRLKMITKEAGKRGFIFCSVFQARLNNIPKIPIVTNPESLKRVKSNNLKTPLEWSQDIMNGFNVPLASESHSLPDTDSFYLRMVGIAREHGLVGTVDARCVELISLALDQYLKNIIEFTIDTVRYRRKKYSDYYDLNESGLYKSVSEMAADKRDAKIKQLDDDKNEDECADEAKSINNGNNSSKDDIGDISMSSITKAGEAVNEELHENRTISLTNEDIYDSLSIFPNLVEPSGSYYALTNLGLVNDDELVDMKSNIDDLPDFLNEKPTFTPLDERNVGTRHELNWLIKGILTED",binds
2,"Spt20 (natural protein, S. cerevisiae, UniProt P50875 1-604, looked up, Spt20, S. cerevisiae, SAGA subunit (SPT module); source: endogenous, in the native SAGA complex purified from fermented S. cerevisiae cells) MSANSPTGNDPHVFGIPVNATPSNMGSPGSPVNVPPPMNPAVANVNHPVMRTNSNSNANEGTRTLTREQIQQLQQRQRLLLQQRLLEQQRKQQALQNYEAQFYQMLMTLNKRPKRLYNFVEDADSILKKYEQYLHSFEFHIYENNYKICAPANSRLQQQQKQPELTSDGLILTKNNETLKEFLEYVARGRIPDAIMEVLRDCNIQFYEGNLILQVYDHTNTVDVTPKENKPNLNSSSSPSNNNSTQDNSKIQQPSEPNSGVANTGANTANKKASFKRPRVYRTLLKPNDLTTYYDMMSYADNARFSDSIYQQFESEILTLTKRNLSLSVPLNPYEHRDMLEETAFSEPHWDSEKKSFIHEHRAESTREGTKGVVGHIEERDEFPQHSSNYEQLMLIMNERTTTITNSTFAVSLTKNAMEIASSSSNGVRGASSSTSNSASNTRNNSLANGNQVALAAAAAAAAVGSTMGNDNNQFSRLKFIEQWRINKEKRKQQALSANINPTPFNARISMTAPLTPQQQLLQRQQQALEQQQNGGAMKNANKRSGNNATSNNNNNNNNLDKPKVKRPRKNAKKSESGTPAPKKKRMTKKKQSASSTPSSTTMS",binds
3,"Taf9 (natural protein, S. cerevisiae, UniProt Q05027 1-157, looked up, Taf9, S. cerevisiae, SAGA subunit (TAF module); source: endogenous, in the native SAGA complex purified from fermented S. cerevisiae cells) MNGGGKNVLNKNSVGSVSEVGPDSTQEETPRDVRLLHLLLASQSIHQYEDQVPLQLMDFAHRYTQGVLKDALVYNDYAGSGNSAGSGLGVEDIRLAIAARTQYQFKPTAPKELMLQLAAERNKKALPQVMGTWGVRLPPEKYCLTAKEWDLEDPKSM",binds

# Biological target: T1, Spt7
# Test: as above
# Conditions: both partners purified
row,Binder,binding result
1,"Taf6 (natural protein, S. cerevisiae, UniProt P53040 1-516, looked up, Taf6, S. cerevisiae, SAGA subunit (TAF module), ~58 kDa as printed; source: endogenous, in the native SAGA complex purified from fermented S. cerevisiae cells) MSTQQQSYTIWSPQDTVKDVAESLGLENINDDVLKALAMDVEYRILEIIEQAVKFKRHSKRDVLTTDDVSKALRVLNVEPLYGYYDGSEVNKAVSFSKVNTSGGQSVYYLDEEEVDFDRLINEPLPQVPRLPTFTTHWLAVEGVQPAIIQNPNLNDIRVSQPPFIRGAIVTALNDNSLQTPVTSTTASASVTDTGASQHLSNVKPGQNTEVKPLVKHVLSKELQIYFNKVISTLTAKSQADEAAQHMKQAALTSLRTDSGLHQLVPYFIQFIAEQITQNLSDLQLLTTILEMIYSLLSNTSIFLDPYIHSLMPSILTLLLAKKLGGSPKDDSPQEIHEFLERTNALRDFAASLLDYVLKKFPQAYKSLKPRVTRTLLKTFLDINRVFGTYYGCLKGVSVLEGESIRFFLGNLNNWARLVFNESGITLDNIEEHLNDDSNPTRTKFTKEETQILVDTVISALLVLKKDLPDLYEGKGEKVTDEDKEKLLERCGVTIGFHILKRDDAKELISAIFFGE",binds
2,"Ada2 (natural protein, S. cerevisiae, UniProt Q02336 1-434, looked up, Ada2, S. cerevisiae, SAGA subunit (HAT module); source: endogenous, in the native SAGA complex purified from fermented S. cerevisiae cells) MSNKFHCDVCSADCTNRVRVSCAICPEYDLCVPCFSQGSYTGKHRPYHDYRIIETNSYPILCPDWGADEELQLIKGAQTLGLGNWQDIADHIGSRGKEEVKEHYLKYYLESKYYPIPDITQNIHVPQDEFLEQRRHRIESFRERPLEPPRKPMASVPSCHEVQGFMPGRLEFETEFENEAEGPVKDMVFEPDDQPLDIELKFAILDIYNSRLTTRAEKKRLLFENHLMDYRKLQAIDKKRSKEAKELYNRIKPFARVMTAQDFEEFSKDILEELHCRARIQQLQEWRSNGLTTLEAGLKYERDKQARISSFEKFGASTAASLSEGNSRYRSNSAHRSNAEYSQNYSENGGRKKNMTISDIQHAPDYALLSNDEQQLCIQLKILPKPYLVLKEVMFRELLKTGGNLSKSACRELLNIDPIKANRIYDFFQSQNWM",binds
3,"Ada3 (natural protein, S. cerevisiae, UniProt P32494 1-702, looked up, Ada3, S. cerevisiae, SAGA subunit (HAT module); source: endogenous, in the native SAGA complex purified from fermented S. cerevisiae cells) MPRHGRRGKLPKGEKLPKKEGGDNTPSKLLSSMLKTLDLTFERDIGMLNGKSVRSIPNKKTLLELQSQLDSLNEILGTIARGDQETIEALRKIRDSKNEKQANDEKQETSNADGQHESSTATEETNIIDKGVQSPPKPPPSNEISGTIENDVESIKQAADNMAKEEINEDKDLQVHRDQPREKRPFDSETENRATENENTQRPDNKKQKIDVDKMENDPTVKNPKSEFVVSQTLPRAAAALGLFNEEGLESTGEDFLKKKYNVASYPTNDLKDLLPGELPDMDFSHPKPTNQIQFNTFLAFVENFFKDLSDDNLKFLKMKYIIPDSLQFDKTYDPEVNPFIIPKLGPLYTDVWFKDENDKNSAYKKPSPYSNDASTILPKKSANELDDNALESGSISCGPLLSRLLSAVLKDDNDKSELQSSKIIRDGGLPRTGGEDDIQSFRNNNNDTVDMTLSQENGPSVQTPDNDIDEEASFQAKLAENKGSNGGTTSTLPQQIGWITNGINLDYPTFEERLKRELKYVGIYMNLPKDENNPNSDDPDWVTGREDDEISAELRELQGTLKQVTKKNQKRKAQLIPLVERQLAWQEYSSILEDLDKQIDQAYVKRIRVPKKRKKHHTAASNNVNTGTTSQIAQQKAANSSLKSLLDKRQRWINKIGPLFDKPEIMKRIPNESVFKDMDQEEDEDEADVFAQNTNKDVELN",binds
4,"Spt8 (natural protein, S. cerevisiae, UniProt P38915 1-602, looked up, Spt8, S. cerevisiae, SAGA subunit (SPT module), ~66.2 kDa as printed; source: endogenous, in the native SAGA complex purified from fermented S. cerevisiae cells) MDEVDDILINNQVVDDEEDDEEMLSGLENDSKQDLEGNDDGGEDEEDDDDDDEDDDDDEDEREDDDEQEDDDGEDDAARMDKTATPTNEHQHDEQKAAAAGAGGAGDSGDAVTKIGSEDVKLSDVDGGVGSREASSSTHEASANGEVYEYYKHMLNAAQIADSYNIYPTAAIPIQTHVNALAVSRGLKYLFLGGSDGYIRKYDLLNTLEGKLSLTILQKHSLAESIQNAGILQSYWENEIPQKKSEMKLSANKTDYEPKVSPVHSLEVQSECLFILSGLQNGGITMQGVRYMEGSIAHYFKGRNGHTQIVNILRLNGQEDRFLSGSWDKRLLEWDLQTGDIVNEFKKSRSELSSLEMRPLYSSVDVSGNVNSGKENENADDDMDSLFGDEDEDEKQDAGNEPVETGDGSNGEENKEQISEESLNIVYDESVFMTSGLNGSVHIWDRRMTQSPALSLERGAGVPPWCLSACWGVDGDHVYAGRRNACVEQFDLKMPSKPIHNLKLPSISGPVSCVKAMPNNKHLLCASRDNIRLYNVEIAVDASNSTTKSSKVPFLIVPGHHGGIISNLYLDPTSRFIISTSGNRGWQGNSTDTTLIYDIDLE",binds
5,"Taf5 (natural protein, S. cerevisiae, UniProt P38129 1-798, looked up, Taf5, S. cerevisiae, SAGA subunit (TAF module); source: endogenous, in the native SAGA complex purified from fermented S. cerevisiae cells) MSQKQSTNQNQNGTHQPQPVKNQRTNNAAGANSGQQPQQQSQGQSQQQGRSNGPFSASDLNRIVLEYLNKKGYHRTEAMLRAESGRTLTPQNKQSPANTKTGKFPEQSSIPPNPGKTAKPISNPTNLSSKRDAEGGIVSSGRLEGLNAPENYIRAYSMLKNWVDSSLEIYKPELSYIMYPIFIYLFLNLVAKNPVYARRFFDRFSPDFKDFHGSEINRLFSVNSIDHIKENEVASAFQSHKYRITMSKTTLNLLLYFLNENESIGGSLIISVINQHLDPNIVESVTAREKLADGIKVLSDSENGNGKQNLEMNSVPVKLGPFPKDEEFVKEIETELKIKDDQEKQLNQQTAGDNYSGANNRTLLQEYKAMNNEKFKDNTGDDDKDKIKDKIAKDEEKKESELKVDGEKKDSNLSSPARDILPLPPKTALDLKLEIQKVKESRDAIKLDNLQLALPSVCMYTFQNTNKDMSCLDFSDDCRIAAAGFQDSYIKIWSLDGSSLNNPNIALNNNDKDEDPTCKTLVGHSGTVYSTSFSPDNKYLLSGSEDKTVRLWSMDTHTALVSYKGHNHPVWDVSFSPLGHYFATASHDQTARLWSCDHIYPLRIFAGHLNDVDCVSFHPNGCYVFTGSSDKTCRMWDVSTGDSVRLFLGHTAPVISIAVCPDGRWLSTGSEDGIINVWDIGTGKRLKQMRGHGKNAIYSLSYSKEGNVLISGGADHTVRVWDLKKATTEPSAEPDEPFIGYLGDVTASINQDIKEYGRRRTVIPTSDLVASFYTKKTPVFKVKFSRSNLALAGGAFRP",binds
